Source: publication PMC10588359

Legend:
[1] = target: dansyl-labeled calmodulin (DANS-CaM), Ca2+-bound (rat) (UniProt P0DP29); experiment: fluorescence polarisation; 2 μM DANS-CaM titrated with CaMKK (30 μM and binary dilution series), 1 h incubation; 10 mM HEPES-NaOH pH 7.4, 150 mM NaCl, 1 mM CaCl2, 0.1% Tween 20, 0.1% BSA; one-site-binding model
[2] = target: dansyl-labeled calmodulin (DANS-CaM), Ca2+-bound (rat) (UniProt P0DP29); experiment: fluorescence polarisation; as a1 but with 60 μM 14-3-3γ present: 2 μM DANS-CaM titrated with CaMKK (30 μM and binary dilution series), 1 h incubation; 10 mM HEPES-NaOH pH 7.4, 150 mM NaCl, 1 mM CaCl2, 0.1% Tween 20, 0.1% BSA; one-site-binding model
[3] = target: CaMKK1_(67–480) D293A, unphosphorylated (human) (UniProt Q8N5S9); experiment: AUC; sedimentation velocity of CaMKKs alone at two concentrations (CaMKK1 at 10 μM); 50 mM Tris–HCl pH 7.5, 150 mM NaCl, 1 mM TCEP; 20°C, 42,000 rpm; monomer to dimer

Kd [1]	Kd [2]	stoichiometry N [3]	Substance
3550 nM	> 10800 nM		pCaMKK2: CaMKK2(93-517) D330A phosphorylated by PKA at four sites (from UniProt Q96RR4 93-517) (domain or fragment)
560 nM	510 nM		CaMKK2(93-517) D330A, unphosphorylated (from UniProt Q96RR4 93-517) (domain or fragment)
		2	CaMKK1_(67–480) D293A, unphosphorylated (from UniProt Q8N5S9 67-480) (domain or fragment)
